In patent US20200299408A1 (Genentech, published 2020):
Where a chain is given by its changes, count along the chain named. In names and notes the source's numbering stands. Several values for one entry are separate records, joined by “and”; a condition that tells them apart may be missing. Equal entries are not always repeated.

T1: single chain human CD3ε-26mer-CD3γ (CD3εγ) (human)
T1 construct: also called human CD3εγ
T1 chain: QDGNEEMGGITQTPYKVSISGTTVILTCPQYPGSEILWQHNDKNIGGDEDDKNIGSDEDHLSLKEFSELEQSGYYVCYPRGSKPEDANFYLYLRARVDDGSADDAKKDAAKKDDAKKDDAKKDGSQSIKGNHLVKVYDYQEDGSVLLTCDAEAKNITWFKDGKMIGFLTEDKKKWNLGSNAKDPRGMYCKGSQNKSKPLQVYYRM

B1: 38E4v2 CHO (bispecific antibody)
anti-CD20 arm heavy chain: EVQLVESGGGLVQPGGSLRLSCAASGYTFTSYNMHWVRQAPGKGLEWVGAIYPGNGDTSYNQKFKGRFTISVDKSKNTLYLQMNSLRAEDTAVYYCARVVYYSNSYWYFDVWGQGTLVTVSS
anti-CD20 arm light chain: DIQMTQSPSSLSASVGDRVTITCRASSSVSYMHWYQQKPGKAPKPLIYAPSNLASGVPSRFSGSGSGTDFTLTISSLQPEDFATYYCQQWSFNPPTFGQGTKVEIK
anti-CD3 arm heavy chain: EVQLVQSGAEVKKPGASVKVSCKASGFTFTSYYIHWVRQAPGQGLEWIGWIYPENDNTKYNEKFKDRVTITADTSTSTAYLELSSLRSEDTAVYYCARDAYSRYYFDYWGQGTLVTVSS
anti-CD3 arm light chain: DIVMTQSPDSLAVSLGERATINCKSSQSLLNSRTRKNYLAWYQQKPGQSPKLLIYWTSTRKSGVPDRFSGSGSGTDFTLTISSLQAEDVAVYYCKQSFILRTFGQGTKVEIK
notes: also called CD3/CD20 TDB 2H7v16/38E4v2
B2: 38E4v3 CHO (bispecific antibody)
anti-CD20 arm heavy chain: B1 anti-CD20 arm heavy chain
anti-CD20 arm light chain: B1 anti-CD20 arm light chain
anti-CD3 arm heavy chain: B1 anti-CD3 arm heavy chain with A100G
anti-CD3 arm light chain: B1 anti-CD3 arm light chain with I99A
notes: also called CD3/CD20 TDB 2H7v16/38E4v3
B3: 38E4v4 CHO (bispecific antibody)
anti-CD20 arm heavy chain: B1 anti-CD20 arm heavy chain
anti-CD20 arm light chain: B1 anti-CD20 arm light chain
anti-CD3 arm heavy chain: B1 anti-CD3 arm heavy chain with A100G
anti-CD3 arm light chain: B1 anti-CD3 arm light chain with Q96A
notes: also called CD3/CD20 TDB 2H7v16/38E4v4
B4: 38E4v5 CHO (bispecific antibody)
anti-CD20 arm heavy chain: B1 anti-CD20 arm heavy chain
anti-CD20 arm light chain: B1 anti-CD20 arm light chain
anti-CD3 arm heavy chain: B1 anti-CD3 arm heavy chain with A100G
anti-CD3 arm light chain: B1 anti-CD3 arm light chain with F98A
notes: also called CD3/CD20 TDB 2H7v16/38E4v5
B5: 38E4v6 CHO (bispecific antibody)
anti-CD20 arm heavy chain: B1 anti-CD20 arm heavy chain
anti-CD20 arm light chain: B1 anti-CD20 arm light chain
anti-CD3 arm heavy chain: B1 anti-CD3 arm heavy chain with D99T, A100G
anti-CD3 arm light chain: B1 anti-CD3 arm light chain
notes: also called CD3/CD20 TDB 2H7v16/38E4v6
B6: 38E4v7 CHO (bispecific antibody)
anti-CD20 arm heavy chain: B1 anti-CD20 arm heavy chain
anti-CD20 arm light chain: B1 anti-CD20 arm light chain
anti-CD3 arm heavy chain: B1 anti-CD3 arm heavy chain with A100G, Y105A
anti-CD3 arm light chain: B1 anti-CD3 arm light chain
notes: also called CD3/CD20 TDB 2H7v16/38E4v7
B7: 38E4v8 CHO (bispecific antibody)
anti-CD20 arm heavy chain: B1 anti-CD20 arm heavy chain
anti-CD20 arm light chain: B1 anti-CD20 arm light chain
anti-CD3 arm heavy chain: B1 anti-CD3 arm heavy chain with D99S, A100G
anti-CD3 arm light chain: B1 anti-CD3 arm light chain
notes: also called CD3/CD20 TDB 2H7v16/38E4v8
B8: 38E4v9 CHO (bispecific antibody)
anti-CD20 arm heavy chain: B1 anti-CD20 arm heavy chain
anti-CD20 arm light chain: B1 anti-CD20 arm light chain
anti-CD3 arm heavy chain: B1 anti-CD3 arm heavy chain with A100G, Y104A
anti-CD3 arm light chain: B1 anti-CD3 arm light chain
notes: also called CD3/CD20 TDB 2H7v16/38E4v9
B9: 40G5c CHO (bispecific antibody, V domains shown)
VH 1: B1 anti-CD20 arm heavy chain
VL 1: B1 anti-CD20 arm light chain
VH 2: B1 anti-CD3 arm heavy chain with F27Y, S31N, E54G, N55D, D56G, D66G, V68A, I70L, A100S, R103N
VL 2: B1 anti-CD3 arm light chain with S49P, T57A, K61E, K95T
modifications: CHO-produced full-length knob-into-hole IgG with N297G in the Fc; constant regions are not in the letters.
notes: CHO material; also called CD3/CD20 TDB 2H7v16/40G5c produced in CHO, N297G
B10: 40G5 (antibody, V domains shown)
VH: QVQLQQSGPELVKPGTSVKMSCKASGYTFTNYYIHWVRQRPGQGLEWIGWIYPGDVSTKYNEKFKGKTTLTADKSSSTAYMLLSGLTSEDSAIYFCARDGYSFYYFDYWGQGTTLTVSS
VL: DIVLTQSPSSLAVSAGEKVTMSCKSSQSLLNSRTRKNYLTWYQQKPGQSPKLLIYWASTRDSGVPDRFSGSGSGTDFTLTISSVQAEDLAVYYCTQSYTLRTFGGGTKLEIK
notes: mouse hybridoma clone; not the consensus 40G5c; also called mu40G5
B11: 38E4 (antibody, IgG3, V domains shown)
VH: QVQLQQSGPELVKPGASVTISCTASGFTFTSYYIHWVRQRPGQGLEWIGWIYPENDNTKYNEKFKDKATLTADTSSSTAYMQLSSLTSEDSAVYYCARDGYSRYYFDYWGQGTTLTVSS
VL: DIVMTQSPSFLAVSAGEKVTMSCKSSQSLLNSRTRKNYLAWYQQRPGQSPKLLIYWTSTRKSGVPDRFTGSGSGTDFTLTISSVQAEDLAIYYCKQSFILRTFGGGTKLEIK
notes: mouse hybridoma clone; also called mu38E4
B12: Rab17 (antibody, rabbit IgG1, V domains shown)
VH: QSVKESEGGLFKPTDTLTLTCTVSGCSLSSCAISWVRQAPGKGLEWIGFMSVTGSAYYANWAKSRSTITRNTNENTVTLKMTRLTAADTAIYFCARVGIGSGLNIWG
VL: DMTQTPSSKSVPVGDTVTINCQASETVYSNNYLAWFQQKPGQPPKRLIYGVSTLDSGVPPRFSGSGSGTQFTLTISDVVCDDAATYYCAGYKTSSSYAIAFGGGTELEIL
notes: clone from the rabbit immunization
B13: hu38E4.v1 H3 mutant D95S (Fab, V domains shown)
VH: B1 anti-CD3 arm heavy chain with D99S, A100G
VL: B1 anti-CD3 arm light chain
notes: copies: 1 + 1
B14: hu38E4.v1 H3 mutant D95T (Fab, V domains shown)
VH: B1 anti-CD3 arm heavy chain with D99T, A100G
VL: B1 anti-CD3 arm light chain
notes: copies: 1 + 1
B15: hu38E4.v1 H3 mutant G96A (Fab, V domains shown)
VH: B1 anti-CD3 arm heavy chain
VL: B1 anti-CD3 arm light chain
notes: copies: 1 + 1
B16: hu38E4.v1 H3 mutant F100bA (Fab, V domains shown)
VH: B1 anti-CD3 arm heavy chain with A100G, F106A
VL: B1 anti-CD3 arm light chain
notes: copies: 1 + 1
B17: hu38E4.v1 H3 mutant R99A (Fab, V domains shown)
VH: B1 anti-CD3 arm heavy chain with A100G, R103A
VL: B1 anti-CD3 arm light chain
notes: copies: 1 + 1
B18: hu38E4.v1 H3 mutant Y97A (Fab, V domains shown)
VH: B1 anti-CD3 arm heavy chain with A100G, Y101A
VL: B1 anti-CD3 arm light chain
notes: copies: 1 + 1

Biological target: T1, single chain human CD3ε-26mer-CD3γ …
Assay: Biacore, human CD3εγ on chip, TDB in flow through
Procedure: (§1) Binding affinities for the each of the CD3/CD20 TDBs were tested by Biacore or FACS analysis, as described above for the anti-CD3 antibodies. Briefly, for Biacore binding assays, human CD3εγ was immobilized on Biacore Series S CM5 sensor chip using the amine coupling kit from Biacore and CD3/CD20 TDBs or Fab variants thereof were in the flow through. For FACS binding assays, either Bjab cells (for B cell antigens) or Jurkat cells (for CD3 antigen) were incubated with various concentrations of TDB antibodies at 4° C. for 30 minutes, then cells were washed and incubated with 2nd antibody (anti-huIgG-PE; BD Bioscience) for another 15 minutes, before cells were washed again and ready for FACS analysis.
With B1 the Kd was 2.43 nM and 2.4 nM, the koff was 0.00513 s⁻¹ and the kon was 2.11e+06 M⁻¹ s⁻¹. With B2 the Kd was 3.21 nM and 3.2 nM, the koff was 0.016 s⁻¹ and the kon was 4.98e+06 M⁻¹ s⁻¹. B3 was tested, and the Kd was 137 nM and 136 nM, the koff was 0.0984 s⁻¹ and the kon was 721000 M⁻¹ s⁻¹. B4 was tested, and the Kd was 16 nM, the koff was 0.0515 s⁻¹ and the kon was 3.22e+06 M⁻¹ s⁻¹. B5 was tested, and the Kd was 37600 nM, the koff was 0.878 s⁻¹ and the kon was 23400 M⁻¹ s⁻¹. Work on B6 yielded a Kd of 254 nM, a koff of 0.29 s⁻¹ and a kon of 1.14e+06 M⁻¹ s⁻¹. In the case of B7, the Kd is reported as 3930 nM, the koff is reported as 0.0443 s⁻¹ and the kon is reported as 11300 M⁻¹ s⁻¹. In the case of B8, the Kd is reported as 64200 nM, the koff is reported as 1.02 s⁻¹ and the kon is reported as 15900 M⁻¹ s⁻¹. Work on B9 yielded a Kd of 51.5 nM, a koff of 0.0307 s⁻¹ and a kon of 597000 M⁻¹ s⁻¹.

The binders below were run against CD3 antigen of Figures 3B and 3C (not named) (assay: kinetic table of IgGs; method and antigen not stated).
B10 was tested, and the Kd was 0.159 nM, the koff was 2.48e-05 s⁻¹ and the kon was 156000 M⁻¹ s⁻¹. With B11 the Kd was 0.0783 nM, the koff was 3.45e-05 s⁻¹ and the kon was 441000 M⁻¹ s⁻¹.

Biological target: CD3 antigen of Figures 3B and 3C (not named)
Assay: as above
Remark: another data set of the same source
B10 was tested, and the Kd was 0.86 nM, the koff was 2.69e-05 s⁻¹ and the kon was 31100 M⁻¹ s⁻¹. Binder B11 has a Kd of 0.95 nM, a koff of 5.32e-05 s⁻¹ and a kon of 56000 M⁻¹ s⁻¹. B12 was tested, and the Kd was 8.46 nM, the koff was 0.000242 s⁻¹ and the kon was 28600 M⁻¹ s⁻¹.

Biological target: T1, single chain human CD3ε-26mer-CD3γ …
Assay: Biacore full (multi-) cycle kinetics; KD relative to hu38E4.v1
Text: (§2) In addition, position 95 in HVR-H3 was also mutated to serine, threonine, or glutamate. Variants with these single point mutations were expressed as Fabs in HEK293 cells and initially screened with a single cycle kinetics method on a Biacore T100. Selected variants were also scaled up and purified for a conventional multi-cycle kinetics method. For single cycle kinetics, Biacore Series S CM5 sensor chips were immobilized with anti-human Fab antibodies (Human Fab capture kit, GE Healthcare). […] For conventional multi-cycle kinetics, human CD3εγ, cyno CD3εγ, or a 27-mer peptide were immobilized on Biacore Series S CM5 sensor chip using the amine coupling kit from Biacore. Serial 3-fold dilutions of each Fab variant were injected at a flow rate of 30 μl/min. Each sample was analyzed with a protocol of 3-minute association and 3-minute dissociation. In both methods, the Biacore chips were regenerated using 10 mM Glycine (pH 1.7). Binding response was corrected by blank subtraction and a 1:1Languir model of simultaneous fitting of kₒₙ and koff was used for kinetics analysis.
For B13, the “ratio (fold)” value was 226 fold. For B14, the “ratio (fold)” value was 43 fold. With B15 the “ratio (fold)” value was 2.4 fold.

What follows are binders tested against T2, human CD3 on T cells (human, UniProt P07766 22-207) (assay: FACS on Jurkat cells (CD3); EC50 table for the curves of FIGS. 21A-21B; source CHO (N297G)).
T2 construct: whole, on cells; On cells CD3ε stands in the CD3/TCR complex; also called CD3 antigen; CD3ε
Procedure: as §1
In the case of B1, the EC50 is reported as 0.52 µg/mL and ~3.4 nM. B2 was tested, and the EC50 was 0.29 µg/mL and ~1.9 nM. With B3 the EC50 was 3.51 µg/mL and ~23 nM. In the case of B4, the EC50 is reported as 4.11 µg/mL and ~27 nM. In the case of B5, the EC50 is reported as 5.56 µg/mL and ~36 nM. With B6 the EC50 was 22.6 µg/mL and ~147 nM. B7 was tested, and the EC50 was 7.23 µg/mL and ~47 nM. B8 was tested, and the EC50 was 15 µg/mL and ~97 nM. In the case of B9, the EC50 is reported as 2.01 µg/mL and ~13 nM.

Biological target: T1, single chain human CD3ε-26mer-CD3γ …
Assay: Biacore single cycle kinetics: Fab captured by anti-human Fab, human CD3εγ injected (3-250 nM)
Text: as §2
B16: no binding (tested: 250 nM CD3εγ (p-1386; not on the sheet)). B17: no binding (tested: 250 nM CD3εγ (p-1386; not on the sheet)). B18: no binding (tested: 250 nM CD3εγ (p-1386; not on the sheet)).

Biological target: T1, single chain human CD3ε-26mer-CD3γ …
Assay: Biacore full (multi-) cycle kinetics: antigen on chip, Fab injected; antigen not named on the sheet, taken as human CD3εγ
Text: as §2
B13 showed a Kd of 180 nM, a koff of 0.202 s⁻¹ and a kon of 1.12e+06 M⁻¹ s⁻¹. B14 showed a Kd of 34.2 nM, a koff of 0.00175 s⁻¹ and a kon of 51100 M⁻¹ s⁻¹. Binder B15 has a Kd of 1.9 nM, a koff of 0.00357 s⁻¹ and a kon of 1.86e+06 M⁻¹ s⁻¹.
